Molecular target: insulin growth factor-1 receptor (IGF1R) (mouse (endogenous in mouse heart))
Assay: BLI

Kd: 147 µM
B1: recombinant mouse SIRPα Fc chimera protein (rSIRPα) (Fc fusion)
chain: KELKVTQPEKSVSVAAGDSTVLNCTLTSLLPVGPIRWYRGVGPSRLLIYSFAGEYVPRIRNVSDTTKRNNMDFSIRISNVTPADAGIYYCVKFQKGSSEPDTEIQSGGGTEVYVLAKPSPPEVSGPADRGIPDQKVNFTCKSHGFSPRNITLKWFKDGQELHPLETTVNPSGKNVSYNISSTVRVVLNSMDVNSKVICEVAHITLDRSPLRGIANLSNFIRVSPTVKVTQQSPTSMNQVNLTCRAERFYPEDLQLIWLENGNVSRNDTPKNLTKNTDGTYNYTSLFLVNSSAHREDVVFTCQVKHDQQPAITRNHTVLGFAHSSDQGSMQTFPDNNATHNWN

— publication PMC10010047
